According to US20160271142A1 (CELLERANT THERAPEUTICS, published 2016):

Key:
[1] = target: T1, C type Lectin Like molecule 1 (CLL-1), on human cell lines (human, UniProt Q5QGZ9 1-265); assay: mean fluorescent intensity of ADC binding to PL21 cells, relative to control C0-CLT-D202 ADC; CLL-1 status of this line not stated
T1 construct: whole, on cells; The target was presented on cells, either endogenously (HL-60, AML-5) or in over-expressing lines (TF1-CLL1, HEL92.1.7-CLL1); also called CLEC12A; DCAL-2
T1 sequence (looked up): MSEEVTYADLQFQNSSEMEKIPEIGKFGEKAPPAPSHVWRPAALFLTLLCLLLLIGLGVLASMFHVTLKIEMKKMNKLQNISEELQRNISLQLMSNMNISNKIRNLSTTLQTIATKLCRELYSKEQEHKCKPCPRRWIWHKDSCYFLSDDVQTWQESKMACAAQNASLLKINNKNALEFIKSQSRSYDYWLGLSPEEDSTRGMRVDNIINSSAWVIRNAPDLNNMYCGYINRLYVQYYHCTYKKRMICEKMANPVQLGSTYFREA

[2] = target: T1, C type Lectin Like molecule 1 (CLL-1), …; assay: mean fluorescent intensity of ADC binding to U937 cells, relative to control C0-CLT-D202 ADC; CLL-1 status of this line not stated
[3] = target: T1, C type Lectin Like molecule 1 (CLL-1), …; assay: mean fluorescent intensity of ADC binding to KG-1a cells, relative to control C0-CLT-D202 ADC; CLL-1 status of this line not stated
[4] = target: T1, C type Lectin Like molecule 1 (CLL-1), …; assay: mean fluorescent intensity of ADC binding to AML5 cells (express CLL-1), relative to control C0-CLT-D202 ADC
[5] = target: T1, C type Lectin Like molecule 1 (CLL-1), …; assay: mean fluorescent intensity of ADC binding to 293 cells, relative to control C0-CLT-D202 ADC; CLL-1 status of this line not stated
[6] = target: T1, C type Lectin Like molecule 1 (CLL-1), …; assay: mean fluorescent intensity of ADC binding to HEL92.1.7-CLL1 cells, relative to control C0-CLT-D202 ADC
[7] = target: T1, C type Lectin Like molecule 1 (CLL-1), …; assay: mean fluorescent intensity of ADC binding to parental HEL92.1.7 cells, relative to control C0-CLT-D202 ADC; CLL-1 status of this line not stated
[8] = target: T1, C type Lectin Like molecule 1 (CLL-1), …; assay: mean fluorescent intensity of ADC binding to SHI-1 cells, relative to control C0-CLT-D202 ADC; CLL-1 status of this line not stated
[9] = target: T1, C type Lectin Like molecule 1 (CLL-1), …; assay: cell-based or functional assay
[10] = target: T1, C type Lectin Like molecule 1 (CLL-1), …; assay: cell-based or functional assay; remark: listed apart in the source
[11] = target: T1, C type Lectin Like molecule 1 (CLL-1), …; assay: mean fluorescent intensity of ADC binding to EOL-1 cells, relative to control C0-CLT-D202 ADC; CLL-1 status of this line not stated
[12] = target: T1, C type Lectin Like molecule 1 (CLL-1), …; assay: cell-based or functional assay; remark: listed apart in the source
[13] = target: T1, C type Lectin Like molecule 1 (CLL-1), …; assay: mean fluorescent intensity of ADC binding to AML2 cells, relative to control C0-CLT-D202 ADC; CLL-1 status of this line not stated
[14] = target: T1, C type Lectin Like molecule 1 (CLL-1), …; assay: mean fluorescent intensity of ADC binding to HNT-34 cells, relative to control C0-CLT-D202 ADC; CLL-1 status of this line not stated
[15] = target: T1, C type Lectin Like molecule 1 (CLL-1), …; assay: mean fluorescent intensity of ADC binding to HL-60 cells (express CLL-1), relative to control C0-CLT-D202 ADC

B1: C6-CLT-D202 ADC (humanized anti-CLL1 antibody C6-S239C-CYSMAB, cys-substituted at position 239, conjugated to CLT-D202) (antibody, V domains shown)
VH: EVQLVQSGAEVKKPGASVKMSCKASGYTFTSYFIHWVRQAPGQGLEWIGFINPYNDGSKYAQKFQGRATLTSDKSTSTVYMELSSLRSEDTAVYYCTRDDGYYGYAMDYWGQGTLVTVSS
VL: DIQMTQSPSSLSASVGDRVTLTCRATQELSGYLSWLQQKPGKAIKRLIYAASTLDSGVPSRFSGNRAGTDYTLTISSLQPEDFATYYCLQYAIYPYTFGQGTKLEIK
modifications: CLT-D202 (maleimide linker-drug) on the engineered cysteine at position 239 (S239C) of the heavy chain constant region; drug to antibody ratio 1.7
[1]
  C6 relative MFI C6/C0: 14.7 ratio
[2]
  C6 relative MFI C6/C0: 14.7 ratio
[3]
  C6 relative MFI C6/C0: 1.3 ratio
[4]
  C6 relative MFI C6/C0: 15 ratio
[5]
  C6 relative MFI C6/C0: 1.2 ratio
[6]
  C6 relative MFI C6/C0: 26.1 ratio
[7]
  C6 relative MFI C6/C0: 1.3 ratio
[8]
  C6 relative MFI C6/C0: 1.4 ratio
[9]
  IC50 ng/mL, cell killing, AML5 cells: 13 ng/mL
  IC50 ng/mL, cell killing, HEL92.1.7-CLL1 cells: 17 ng/mL
  IC50 ng/mL, cell killing, HL-60 cells: 11 ng/mL
[10]
  IC50, killing of proliferating AML-5 cells: 0.03 µg/mL
  IC50, killing of quiescent AML-5 cells: 0.02 µg/mL
  decrease in IC50 of cell killing, TF1-CLL1 against TF1: ~1000 fold
  target dependent cell killing, HL-60 cells, relative to control C0-CLT-D202 ADC: > 500 fold
[11]
  C6 relative MFI C6/C0: 20.5 ratio
[12]
  IC50 ug/mL, cell killing, TF1-CLL1 cells: 0.008 µg/mL
[13]
  C6 relative MFI C6/C0: 13 ratio
[14]
  C6 relative MFI C6/C0: 5.8 ratio
[15]
  C6 relative MFI C6/C0: 20 ratio
